Experimental findings from patent US20080152587A1 (Amgen, published 2008) are described below.

In assay [1] the target is T1, soluble recombinant human uPAR/His6 (R&D Systems, Cat. # 807-UK-100) (human, UniProt Q03405 23-303).
T1 construct: range 1-303; Bought protein; also called soluble uPAR; hu-uPAR
Nature of the assay: limited antigen ELISA, uPAR coat 80 ng/mL, sample 1:25. A general note: An ELISA detects its analyte on a solid surface through an enzyme-linked reagent.
Procedure: (§1) ELISA plates were coated with a lower amount ofuPAR in comparison with the High Antigen Quantitation assay described below (320, 160, 80, 40 and 20 ng/mL). Samples containing one concentration of antibody (Ab) (1:25 dilution) were incubated overnight to allow Ab binding to approach equilibrium.

In assay [2] the target is T2, mouse uPAR on the surface of NCTC L929 cells (mouse, UniProt P35456 24-298).
T2 construct: whole, on cells; also called cell surface mouse uPAR
T2 sequence (looked up): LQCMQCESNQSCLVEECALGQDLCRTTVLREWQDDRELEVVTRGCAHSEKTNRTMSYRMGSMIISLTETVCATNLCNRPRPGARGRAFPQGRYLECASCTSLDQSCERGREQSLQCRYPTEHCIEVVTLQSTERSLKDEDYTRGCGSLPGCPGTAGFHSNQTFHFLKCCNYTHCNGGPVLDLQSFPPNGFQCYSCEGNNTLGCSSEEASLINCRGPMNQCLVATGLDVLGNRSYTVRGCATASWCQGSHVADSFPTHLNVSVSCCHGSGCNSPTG
Nature of the assay: FACS, NCTC L929 mouse cells, mAb 6.25 µg/ml.
Procedure: (§2) To make the mouse cross-reactivity results conclusive, direct binding of the mAbs to cell-bound mouse uPAR was measured using FACS analysis. The mouse cell line derived from the connective tissue, NCTC L929, was employed for FACS analysis. The harvested cells were resuspended at 50,000 cells/well using FACS buffer into a V-bottom plate which was put on ice. […] After washing, Cy5-labeled goat anti-human IgG Fc at 5 μg/ml and 7AAD at 5 μg/ml was added. The mixtures were incubated for 15 min on ice, washed and resuspended in cold FACS buffer for FACS analysis.

Assay [3] concerns the target T3, murine uPAR (form not stated) (mouse, UniProt P35456 24-297, limits assumed).
T3 construct: also called mouse uPAR
T3 sequence (looked up): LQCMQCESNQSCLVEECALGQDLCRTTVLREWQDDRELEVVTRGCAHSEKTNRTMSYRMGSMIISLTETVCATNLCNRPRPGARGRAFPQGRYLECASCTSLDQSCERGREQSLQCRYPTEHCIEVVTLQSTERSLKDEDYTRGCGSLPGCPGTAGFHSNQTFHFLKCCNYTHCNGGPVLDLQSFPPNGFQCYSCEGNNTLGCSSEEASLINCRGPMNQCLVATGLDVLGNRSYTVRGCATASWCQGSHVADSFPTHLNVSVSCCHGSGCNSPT
Nature of the assay: summary column Murine X-reactivity.

Assay [4] has as its target T4, human urokinase-type plasminogen activator receptor (uPAR, CD87), cell-bound (human, UniProt Q03405 23-305).
T4 construct: whole, on cells; On B300.19 or L929 transfectants (full length cDNA), or native on U937 and PC-3 cells
Nature of the assay: FACS, B300.19 cells expressing human uPAR, anti-human gamma Cy5. A general note: A flow cytometer gives signals particle by particle.

Assay [5] concerns the target T1, soluble recombinant human uPAR/His6 …. Nature of the assay: low resolution Biacore. In general terms: In SPR one partner is held on a chip, and binding of the other changes the refractive index at the surface.
Procedure: (§3) A high-density goat anti-human antibody surface over a CM5 Biacore™ chip was prepared using routine amine coupling. […] Each mAb was captured on a separate flow cell using a 30-second contact time at 10 μL/min followed by a 5-minute wash at a 100 μL/min flow rate for stabilization of the mAb baseline. […] All antigen samples were prepared in the running buffer.
Assay [6] shares this target. Nature of the assay: low resolution Biacore, mAb captured by goat anti-human, hu-uPAR 312 nM.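 Also: surface plasmon resonance on a CM5 chip with goat anti-human antibody surface made by amine coupling, each mAb from supernatant captured per flow cell, kinetics fitted including mass transport.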
Procedure: as §3
A mass transport coefficient was used in fitting the data.
In assay [7] the target is T2, mouse uPAR on the surface of NCTC L929 …. Nature of the assay: FACS, NCTC L929 mouse cells.
Procedure: as §2
Assay [8] concerns the target T4, human urokinase-type plasminogen …. Nature of the assay: FACS competition, FITC-tc-uPA on L929 cells expressing human uPAR, supernatant 1:2.
Source text: (§4) Briefly, murine fibroblast L929 cells (ATCC) were transfected to express human uPAR.
Assay [9] has the same target. Nature of the assay: cell-based or functional assay.
For assay [10] the target is unchanged. Nature of the assay: FACS competition with FITC-tc-uPA, line material.
Source text: as §4
Assay [11] has as its target T5, human Ly6e with a myc tag, expressed in HEK293T cells (human, UniProt Q16553 21-101).
T5 construct: whole, on cells; not shown: myc tag fused on the molecule
T5 sequence (looked up): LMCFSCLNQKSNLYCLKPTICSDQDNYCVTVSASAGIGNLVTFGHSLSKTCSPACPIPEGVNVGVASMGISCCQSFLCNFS
Nature of the assay: FACS, HEK293T cells expressing Ly6e, supernatant 1:2.

Assay [12] concerns the target T6, cynomolgus monkey uPAR, cell-bound (cynomolgus monkey, UniProt Q9GK78 23-305).
T6 construct: whole, on cells; also called cyno-uPAR
Nature of the assay: FACS, GeoMean; cynomolgus uPAR expressed on 293T cells; antibody concentration not given.

The target in assay [13] is T1, soluble recombinant human uPAR/His6 …. Nature of the assay: limited antigen ELISA, uPAR coat 20 ng/mL, sample 1:25.
Procedure: as §1

T4 sequence (Q03405 23-305): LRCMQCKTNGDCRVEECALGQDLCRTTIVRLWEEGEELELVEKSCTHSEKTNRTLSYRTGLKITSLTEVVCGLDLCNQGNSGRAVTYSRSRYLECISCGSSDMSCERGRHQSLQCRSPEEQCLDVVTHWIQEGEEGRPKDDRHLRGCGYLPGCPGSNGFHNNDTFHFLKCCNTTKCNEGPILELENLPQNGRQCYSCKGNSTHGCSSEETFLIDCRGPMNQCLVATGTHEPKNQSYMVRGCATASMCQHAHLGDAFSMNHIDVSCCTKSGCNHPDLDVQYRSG
T6 sequence (Q9GK78 23-305): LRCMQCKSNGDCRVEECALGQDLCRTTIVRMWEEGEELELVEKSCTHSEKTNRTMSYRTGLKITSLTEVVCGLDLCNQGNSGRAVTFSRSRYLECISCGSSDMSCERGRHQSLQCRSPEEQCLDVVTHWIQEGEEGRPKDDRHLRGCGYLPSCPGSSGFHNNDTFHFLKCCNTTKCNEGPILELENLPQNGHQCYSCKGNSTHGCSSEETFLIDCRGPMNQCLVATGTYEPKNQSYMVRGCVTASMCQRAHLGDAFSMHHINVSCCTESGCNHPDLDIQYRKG
T1 sequence (Q03405 other isoform, or with tags, fused parts or gaps limits assumed, form in doubt): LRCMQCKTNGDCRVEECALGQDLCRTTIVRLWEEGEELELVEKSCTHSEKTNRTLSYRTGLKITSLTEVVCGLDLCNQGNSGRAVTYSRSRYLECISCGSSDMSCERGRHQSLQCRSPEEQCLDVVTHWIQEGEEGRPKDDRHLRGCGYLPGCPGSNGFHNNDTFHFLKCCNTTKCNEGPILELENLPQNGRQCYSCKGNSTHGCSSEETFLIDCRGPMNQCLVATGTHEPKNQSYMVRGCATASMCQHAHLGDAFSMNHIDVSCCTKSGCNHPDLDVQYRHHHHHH

B1: anti-uPAR monoclonal antibody 1.113.2 (antibody, V domains shown)
VH: QVQLVESGGGVVQPGRSLRLSCAASGFTFSSYGMHWVRQAPGKGLEWVAVIWYDGSNKYYADSVKGRFTISRDNSKNTLYLQMNSLRAEDTAVYYCARDLAALYYYYGMHVWGQGTTVTVSS
VL: EIVMTQSPATLSVSPGERATLSCRASQSFSSNLAWYQQKPGQAPRLLIYGASTRATGIPARFSGSGSGTEFTLTISSLQSEDFAVYYCQQNNNWPRTFGQGTKVEIK
For B1, the “LA at 80 ng/ml” value in assay [1] came out at 1.8. In addition, the “X Geo Mean” value in assay [2] was found to be 10.2. The binding result in assay [3] is on record as “no binding”; in assay [7], “no binding (tested: 6.25 µg/ml)”; in [11] it was “no binding (tested: GeoMean ratio 1.95)”; in assay [12], “binds”. The “gCy5 Geo Mean Pos Cells” value in assay [4] is 511. The equilibrium dissociation constant (Kd) in assay [5] and in [6] was 4.6 nM in each case. In addition, the koff (as a rule, a measure of how fast the partners let go of each other) in assay [6] is 0.00013 s⁻¹. Moreover, the kon (usually a measure of how fast the partners come together) in [6] was 28000 M⁻¹ s⁻¹. For the same molecule, in assay [8], the “uPA/uPAR binding Inhibition %” value is 75%. Further, the “Plasminogen activation inhibition (IC50, ug/ml)” value in assay [9] turned out to be 0.775 µg/mL. In addition, in assay [10], the “Human uPAR/uPA binding inhibition (%, line material)” value came out at 75%. Further, the “LA at 20 ng/ml” value in [13] was 0.53.

B2: anti-uPAR monoclonal antibody 1.41.1 (antibody, V domains shown)
VH: QVQLVESGGGVVQPGRSLRLSCAAPGFTFSSYGMHWVRQAPGKGLEWVAVIWYDGSQKYYADSVKGRFTISRDNSKNTLYLQMNSLRAEDTAVYYCARGMTYYYYYGMDVWGQGTTVTVSS
VL: EIVMTQSPAILSVSPGERATLSCRASQSVSSKLDWYQQKPGQAPRLLIYGASTRATGIPARFSGSGSGTEFTLTISSLQSEDFAVYYCQQYNNWPRTFGQGTKVEIK
Regarding B2, the “LA at 80 ng/ml” value in [1] was determined as 1.48. Further, in assay [2], the “X Geo Mean” value was found to be 9.59. Moreover, the binding result in [3] is “no binding”; in [7], “no binding (tested: 6.25 µg/ml)”; in assay [11] it was “no binding (tested: GeoMean ratio 1.95)”; in [12], “binds”. Further, the “gCy5 Geo Mean Pos Cells” value in [4] amounted to 422. In addition, the Kd in assay [5] and in assay [6] was 3.9 nM each time. Further, in [6], the koff was found to be 0.00013 s⁻¹. Moreover, in assay [6], the kon came out at 33000 M⁻¹ s⁻¹. Moreover, the “uPA/uPAR binding Inhibition %” value in assay [8] amounted to 74%. Also, the “Plasminogen activation inhibition (IC50, ug/ml)” value in assay [9] was determined as 0.181 µg/mL. Also, the “Human uPAR/uPA binding inhibition (%, line material)” value in assay [10] stood at 74%. Besides, the “LA at 20 ng/ml” value in [13] worked out at 0.27.

B3: anti-uPAR monoclonal antibody 1.4.2 (antibody, V domains shown)
VH: EVQLVESGGGLVQPGGSLRLSCAASGFTFSSYDMHWVRQATGKGLEWVSAIGTAGDTYYPGSVKGRFTISRENAKNSLYLQMNSLRAGDTAVYYCAREGDYSNYFTMVRGVTYGMDVWGQGTTVTVSS
VL: DIQLTQSPSSLCASVGDRITITCRASQGISKYLAWFQQKPGKAPKSLIYGASSLQSGVPAKFSGSGSGTDFTLTISSLQPEDFATYYCQQYNSYPLTFGGGTKVEIK
Turning to B3, the “LA at 80 ng/ml” value in assay [1] is 0.66. Also, the “X Geo Mean” value in [2] came to 12.4. Further, the binding result in [3] is listed as “no binding”; in assay [7] it was “no binding (tested: 6.25 µg/ml)”; in assay [11] it was “no binding (tested: GeoMean ratio 1.95)”; in assay [12] it was “binds”. Also, in assay [4], the “gCy5 Geo Mean Pos Cells” value worked out at 419. The Kd in [5] and in assay [6] was 8.7 nM in each case. Moreover, the koff in assay [6] stood at 0.00096 s⁻¹. The kon in assay [6] was 110000 M⁻¹ s⁻¹. Further, the “uPA/uPAR binding Inhibition %” value in [8] is 69%. For the same molecule, in [9], the “Plasminogen activation inhibition (IC50, ug/ml)” value was determined as 0.075 µg/mL. Besides, the “Human uPAR/uPA binding inhibition (%, line material)” value in assay [10] was found to be 69%. For the same molecule, the “LA at 20 ng/ml” value in [13] was 0.16.

B4: anti-uPAR monoclonal antibody 1.61.1 (antibody, V domains shown)
VH: EVQLVESGGGLVQPGGSLRLSCAASGFTFSSYDMHWVRQATGKGLEWVSAIGTAGDTYYPGSVKGRFTISRENAKNSLYLQMNSLRAGDTAVYYCAREGDYSNYFTRVRGVTYGMDVWGQGTTVTVSS
VL: DIQMTQSPSSLSASVGDRVTITCRASQGISKYLAWFQQKPGKAPKSLIYGASSLQSGVPSKFSGSGSGTDFTLTISSLQPEDFATYYCQQYNSYPLTFGGGTKVEIK
B4: the “LA at 80 ng/ml” value in assay [1] was 1.99. Besides, the “X Geo Mean” value in assay [2] stood at 9.7. Moreover, the binding result in assay [3] is recorded as “no binding”; in assay [7] it was “no binding (tested: 6.25 µg/ml)”; in assay [11], “no binding (tested: GeoMean ratio 1.95)”; in assay [12] it was “binds”. Also, in [4], the “gCy5 Geo Mean Pos Cells” value is 559. Moreover, the Kd in assay [5] and in assay [6] was 2.7 nM each time. Besides, in assay [6], the koff amounted to 0.00025 s⁻¹. The kon in [6] was 94000 M⁻¹ s⁻¹. In [8], the “uPA/uPAR binding Inhibition %” value worked out at 69%. Besides, the “Plasminogen activation inhibition (IC50, ug/ml)” value in assay [9] amounted to 0.119 µg/mL. Further, in [10], the “Human uPAR/uPA binding inhibition (%, line material)” value was 69%. For the same molecule, the “LA at 20 ng/ml” value in assay [13] was found to be 0.27.

B5: anti-uPAR monoclonal antibody 1.100.1 (antibody, V domains shown)
VH: EVQLVESGGGLLQPGGSLRLSCAASGFTVRNNYMNWVRQAPGKGLEWVSVIYTGGSTYYADSVKGRFTISRDNSKNTLYLQMNSLRAEDTAVYYCAREGKLAGMDVWGQGTTVTVSS
VL: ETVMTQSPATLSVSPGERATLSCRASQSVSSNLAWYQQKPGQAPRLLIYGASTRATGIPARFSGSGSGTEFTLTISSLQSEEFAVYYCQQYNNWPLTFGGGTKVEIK
For the molecule B5, the “LA at 80 ng/ml” value in assay [1] was 2.15. Moreover, the “X Geo Mean” value in assay [2] worked out at 9.89. For the same molecule, the binding result is on record as “no binding” in assay [3], “no binding (tested: 6.25 µg/ml)” in assay [7], “no binding (tested: GeoMean ratio 1.95)” in assay [11] and “binds” in assay [12]. For the same molecule, the “gCy5 Geo Mean Pos Cells” value in [4] worked out at 521. The Kd in [5] and in assay [6] was 2.3 nM each time. For the same molecule, in [6], the koff worked out at 0.00017 s⁻¹. The kon in [6] is 75000 M⁻¹ s⁻¹. Besides, the “uPA/uPAR binding Inhibition %” value in [8] was 78%. Besides, the “Plasminogen activation inhibition (IC50, ug/ml)” value in assay [9] was 0.061 µg/mL. In addition, in assay [10], the “Human uPAR/uPA binding inhibition (%, line material)” value worked out at 78%. Also, the “LA at 20 ng/ml” value in assay [13] came to 0.27.

B6: anti-uPAR monoclonal antibody 3.8.3 (antibody, V domains shown)
VH: EVQLVESGGGLVQPGGSLRLSCAASGFTFSSYWMSWVRQAPGKGLEWVANIKQHGSEKYYVDSVKGRFTISRDNAKNSLYLQMNSLRAEDTAVYYCAREEAYYYDNSGYYWYFDLWARGTLVTVSS
VL: DIQMTQSPSSVSASIGDRVTITCRASQGISSWLAWYQQKPGKTPKLLIYAASSLQSGVPSRFSGSGSGTDFTLTISSLQPEDFATYYCQQADSFPWTFGQGTKVEIK
Consider B6, for which the “LA at 80 ng/ml” value in [1] was 2.57. In addition, in assay [3], the binding result is “no binding”. The “gCy5 Geo Mean Pos Cells” value in [4] amounted to 451. For the same molecule, in [5], the Kd (in general, the concentration at which binding is half-saturated) is 3.1 nM. Besides, in [6], the Kd was 3.1 nM, the koff worked out at 6.8e-05 s⁻¹ and the kon was found to be 22000 M⁻¹ s⁻¹. Also, in assay [8], the “uPA/uPAR binding Inhibition %” value stood at 70%. In assay [9], the “Plasminogen activation inhibition (IC50, ug/ml)” value was determined as 0.328 µg/mL. Moreover, in assay [10], the “Human uPAR/uPA binding inhibition (%, line material)” value worked out at 70%. The binding result in assay [11] is “no binding (tested: GeoMean ratio 1.95)”. In addition, the “LA at 20 ng/ml” value in assay [13] was found to be 0.67.
